Measured values from patent US20260184814A1, “BROADLY NE[…] INFLUENZA NEURAMINIDASE” (priority 2022, published 2026).
Read-outs that look alike come from different tables or passages of the source.

Legend:
[1] = biological target: human FcγRIIa (H131 allele) (human) (UniProt P12318); experiment: MSD
human FcγRIIb (human) [2] = biological target: human FcγRIIb (human) (UniProt P31994); experiment: MSD
[3] = biological target: human FcγRIIa (R131 allele) (human) (UniProt P12318); experiment: MSD
human FcRn (human) [4] = biological target: human FcRn (human) (UniProt P55899); experiment: MSD, pH 6 [cont'd]
Chain of human FcRn (human) (P55899 24-297 limits assumed, chain 1 of 2): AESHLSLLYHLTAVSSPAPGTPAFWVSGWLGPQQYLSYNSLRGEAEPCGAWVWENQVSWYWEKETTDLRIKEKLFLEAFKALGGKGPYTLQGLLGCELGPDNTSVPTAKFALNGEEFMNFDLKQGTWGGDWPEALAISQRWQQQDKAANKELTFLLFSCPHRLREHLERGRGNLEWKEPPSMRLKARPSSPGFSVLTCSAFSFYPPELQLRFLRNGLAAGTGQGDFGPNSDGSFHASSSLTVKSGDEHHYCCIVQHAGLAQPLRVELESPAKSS
Chain of human FcRn (human) (chain, as listed by the source limits assumed, chain 2 of 2): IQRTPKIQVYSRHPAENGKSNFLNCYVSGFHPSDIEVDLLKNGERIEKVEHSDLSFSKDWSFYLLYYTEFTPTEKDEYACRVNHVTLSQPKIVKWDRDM

[5] = biological target: human FcγRIIIa (V158 allele) (human) (UniProt P08637); experiment: MSD [cont'd]
Chain of human FcγRIIIa (V158 allele) (human) (P08637 17-208 F176V limits assumed): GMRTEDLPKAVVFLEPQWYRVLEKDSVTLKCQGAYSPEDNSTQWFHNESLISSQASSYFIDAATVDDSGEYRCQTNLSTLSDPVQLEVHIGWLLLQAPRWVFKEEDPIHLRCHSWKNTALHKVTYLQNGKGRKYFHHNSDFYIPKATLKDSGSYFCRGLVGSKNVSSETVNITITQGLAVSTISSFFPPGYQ

human C1q (human) [6] = biological target: human C1q (human) (UniProt P02745); experiment: MSD [cont'd]
Chain of human C1q (human) (P02745 23-245 limits assumed, chain 1 of 3): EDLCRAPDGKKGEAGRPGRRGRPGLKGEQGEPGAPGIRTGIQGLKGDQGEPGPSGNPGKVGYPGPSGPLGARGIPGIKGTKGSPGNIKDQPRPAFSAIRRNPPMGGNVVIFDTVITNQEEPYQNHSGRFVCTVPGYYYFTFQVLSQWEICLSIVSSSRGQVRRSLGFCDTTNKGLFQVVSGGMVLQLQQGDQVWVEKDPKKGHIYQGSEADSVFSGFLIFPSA
Chain of human C1q (human) (P02746 28-253 limits assumed, chain 2 of 3, further chain): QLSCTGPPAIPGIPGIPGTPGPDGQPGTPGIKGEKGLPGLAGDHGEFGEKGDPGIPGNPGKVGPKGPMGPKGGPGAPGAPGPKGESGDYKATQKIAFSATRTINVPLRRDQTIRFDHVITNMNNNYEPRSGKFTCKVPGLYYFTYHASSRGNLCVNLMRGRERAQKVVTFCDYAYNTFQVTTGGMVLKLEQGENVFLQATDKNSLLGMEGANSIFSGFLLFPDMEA
Chain of human C1q (human) (P02747 29-245 limits assumed, chain 3 of 3, further chain): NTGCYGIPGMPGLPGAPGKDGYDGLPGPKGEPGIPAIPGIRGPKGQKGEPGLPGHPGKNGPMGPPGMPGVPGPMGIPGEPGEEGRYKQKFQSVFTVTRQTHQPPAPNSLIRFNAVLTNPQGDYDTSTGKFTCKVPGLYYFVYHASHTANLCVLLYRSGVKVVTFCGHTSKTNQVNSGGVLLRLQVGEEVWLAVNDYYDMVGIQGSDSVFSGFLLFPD

[7] = biological target: human FcγRIIIa (F158 allele) (human) (UniProt P08637); experiment: MSD [cont'd]
Chain of human FcγRIIIa (F158 allele) (human) (P08637 17-208 limits assumed): as the sequence (P08637 17-208 F176V limits assumed) above, with V160F counted along it

[8] = biological target: human FcγRIIa (H131 allele) (human) (UniProt P12318); experiment: MSD [cont'd]
human FcRn (human) [9] = biological target: human FcRn (human) (UniProt P55899); experiment: MSD [cont'd]
human FcγRIIb (human) [10] = biological target: human FcγRIIb (human) (UniProt P31994); experiment: MSD [cont'd]
[11] = biological target: human FcγRIIIa (V158 allele) (human) (UniProt P08637); experiment: MSD [cont'd]; remark: listed apart in the source
human C1q (human) [12] = biological target: human C1q (human) (UniProt P02745); experiment: MSD [cont'd]; remark: listed apart in the source
[13] = biological target: human FcγRIIIa (F158 allele) (human) (UniProt P08637); experiment: MSD [cont'd]; remark: listed apart in the source
[14] = biological target: human FcγRIIa (R131 allele) (human) (UniProt P12318); experiment: MSD [cont'd]
[15] = biological target: human FcγRIIa (H131 allele) (human) (UniProt P12318)
human FcγRIIb (human) [16] = biological target: human FcγRIIb (human) (UniProt P31994)
[17] = biological target: human FcγRIIIa (V158 allele) (human) (UniProt P08637)
[18] = biological target: human FcγRIIIa (F158 allele) (human) (UniProt P08637)
human FcγRIIIb (human) [19] = biological target: human FcγRIIIb (human) (UniProt O75015); experiment: MSD [cont'd]
Chain of human FcγRIIIb (human) (O75015 17-200 limits assumed): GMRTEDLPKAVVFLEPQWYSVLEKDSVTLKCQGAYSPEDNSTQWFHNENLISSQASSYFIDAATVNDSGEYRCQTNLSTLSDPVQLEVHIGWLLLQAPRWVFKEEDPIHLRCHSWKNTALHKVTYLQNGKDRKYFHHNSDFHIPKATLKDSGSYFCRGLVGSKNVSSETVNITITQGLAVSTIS

[20] = biological target: human FcγRIIa (H131 allele) (human) (UniProt P12318); experiment: MSD [cont'd]; remark: listed apart in the source
human FcRn (human) [21] = biological target: human FcRn (human) (UniProt P55899); experiment: MSD [cont'd]; remark: listed apart in the source
human FcγRIIb (human) [22] = biological target: human FcγRIIb (human) (UniProt P31994); experiment: MSD [cont'd]; remark: listed apart in the source
[23] = biological target: human FcγRIIa (R131 allele) (human) (UniProt P12318); experiment: MSD [cont'd]; remark: listed apart in the source
[24] = biological target: human FcγRIIIa (V158 allele) (human) (UniProt P08637); remark: listed apart in the source
[25] = biological target: human FcγRIIIa (F158 allele) (human) (UniProt P08637); remark: listed apart in the source
human FcγRIIIb (human) [26] = biological target: human FcγRIIIb (human) (UniProt O75015); experiment: MSD
human FcRn (human) [27] = biological target: human FcRn (human) (UniProt P55899); experiment: MSD
[28] = biological target: human FcγRIIIa (V158 allele) (human) (UniProt P08637); experiment: MSD
human C1q (human) [29] = biological target: human C1q (human) (UniProt P02745); experiment: MSD
[30] = biological target: human FcγRIIIa (F158 allele) (human) (UniProt P08637); experiment: MSD
[31] = biological target: human FcγRIIa (H131 allele) (human) (UniProt P12318); experiment: MSD electrochemiluminescence binding assay; column IIA_H
human FcγRIIIb (human) [32] = biological target: human FcγRIIIb (human) (UniProt O75015); experiment: MSD electrochemiluminescence binding assay; column IIIB
[33] = biological target: human FcγRIIIa (F158 allele) (human) (UniProt P08637); experiment: MSD electrochemiluminescence binding assay; column IIIA_F
human FcγRIIb (human) [34] = biological target: human FcγRIIb (human) (UniProt P31994); experiment: MSD electrochemiluminescence binding assay; column IIB
human FcRn (human) [35] = biological target: human FcRn (human) (UniProt P55899); experiment: MSD electrochemiluminescence binding assay; column FcRn
[36] = biological target: human FcγRIIa (R131 allele) (human) (UniProt P12318); experiment: MSD electrochemiluminescence binding assay; column IIA_R
[37] = biological target: human FcγRIIa (H131 allele) (human) (UniProt P12318); remark: listed apart in the source
human FcγRIIb (human) [38] = biological target: human FcγRIIb (human) (UniProt P31994); remark: listed apart in the source
[39] = biological target: human FcγRIIIa (V158 allele) (human) (UniProt P08637); remark: listed apart in the source
[40] = biological target: human FcγRIIIa (F158 allele) (human) (UniProt P08637); remark: listed apart in the source
[41] = biological target: human FcγRIIIa (V158 allele) (human) (UniProt P08637); experiment: MSD electrochemiluminescence binding assay; column IIIA_V

Chain of human FcγRIIa (H131 allele) (human) (P12318 34-218 limits assumed): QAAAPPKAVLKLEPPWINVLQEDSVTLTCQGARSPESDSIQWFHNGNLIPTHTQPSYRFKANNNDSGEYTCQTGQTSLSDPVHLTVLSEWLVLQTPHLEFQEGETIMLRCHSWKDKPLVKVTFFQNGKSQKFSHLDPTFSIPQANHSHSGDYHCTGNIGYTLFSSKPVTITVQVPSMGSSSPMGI
Chain of human FcγRIIa (R131 allele) (human) (P12318 34-218 H167R limits assumed): as the sequence (P12318 34-218 limits assumed) above, with H134R counted along it
Chain of human FcγRIIb (human) (P31994 43-217 limits assumed): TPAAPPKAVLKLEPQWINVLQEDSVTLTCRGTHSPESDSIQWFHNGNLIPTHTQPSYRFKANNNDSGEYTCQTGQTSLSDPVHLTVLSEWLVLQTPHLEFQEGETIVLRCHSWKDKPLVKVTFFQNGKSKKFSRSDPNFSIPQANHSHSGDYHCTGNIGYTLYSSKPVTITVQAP

IgG1 antibody with Fc variant G236Y
fold-change to WT Fc [1]: 0.735 fold
fold-change to WT Fc (human FcγRIIb (human) [2]): 0.547 fold
fold-change to WT Fc [3]: 0.418 fold
fold-change to WT Fc (human FcRn (human) [4]): 1.05 fold
fold-change to WT Fc [5]: 0.116 fold
fold-change to WT Fc (human C1q (human) [6]): 3.25 fold
fold-change to WT Fc [7]: 0.559 fold
fold-change vs wt [8]: 0.74 fold
fold-change vs wt (human FcRn (human) [9]): 1.05 fold
fold-change vs wt (human FcγRIIb (human) [10]): 0.55 fold
fold-change vs wt [11]: 0.12 fold
fold-change vs wt (human C1q (human) [12]): 3.22 fold
fold-change vs wt [13]: 0.56 fold
fold-change vs wt [14]: 0.42 fold

IgG1 antibody with Fc variant F243L_G446E_P396L_S267E
fold-change vs wt [8]: 0.77 fold
fold-change vs wt (human FcRn (human) [9]): 1.05 fold
fold-change vs wt (human FcγRIIb (human) [10]): 15.7 fold
fold-change vs wt [11]: 0.24 fold
fold-change vs wt (human C1q (human) [12]): 4.17 fold
fold-change vs wt [13]: 0.63 fold
fold-change vs wt [14]: 31.1 fold

IgG1 antibody with Fc variant S239D_H268E_G236A
FcγR reporter signaling, fold-change vs wt [cont'd] [15]: 2.15 fold
FcγR reporter signaling, fold-change vs wt [cont'd] (human FcγRIIb (human) [16]): 1.8 fold
FcγR reporter signaling, fold-change vs wt [cont'd] [17]: 5.22 fold
FcγR reporter signaling, fold-change vs wt [cont'd] [18]: 12.8 fold
fold-change vs wt (human FcγRIIIb (human) [19]): 3.04 fold
fold-change vs wt [20]: 11.7 fold
fold-change vs wt (human FcRn (human) [21]): 0.91 fold
fold-change vs wt (human FcγRIIb (human) [22]): 5.09 fold
fold-change vs wt [5]: 7.9 fold
fold-change vs wt (human C1q (human) [6]): 0.4 fold
fold-change vs wt [7]: 16.3 fold
fold-change vs wt [23]: 53.5 fold

R292P_Y300L-afuc (antibody)
FcγR reporter signaling, fold to wt-fucose [cont'd] [24]: 4.52 fold
FcγR reporter signaling, fold to wt-fucose [cont'd] [25]: 10.6 fold
fold to wt-fucose (human FcγRIIIb (human) [19]): 4.53 fold
fold to wt-fucose [20]: 1.27 fold
fold to wt-fucose (human FcRn (human) [21]): 0.82 fold
fold to wt-fucose (human FcγRIIb (human) [22]): 1.05 fold
fold to wt-fucose [5]: 16.1 fold
fold to wt-fucose [7]: 26.5 fold
fold to wt-fucose [23]: 0.72 fold

S239D_H268E_G236A-afuc (antibody)
FcγR reporter signaling, fold to wt-fucose [cont'd] [24]: 5.65 fold
FcγR reporter signaling, fold to wt-fucose [cont'd] [25]: 11.6 fold
fold to wt-fucose (human FcγRIIIb (human) [19]): 38.1 fold
fold to wt-fucose [20]: 13.6 fold
fold to wt-fucose (human FcRn (human) [21]): 1.01 fold
fold to wt-fucose (human FcγRIIb (human) [22]): 6.35 fold
fold to wt-fucose [5]: 84.9 fold
fold to wt-fucose [7]: 425 fold
fold to wt-fucose [23]: 62 fold

IgG1 antibody with Fc variant G236A_L328V_Q295E
fold-change vs FY1 rIgG1m3 (human FcγRIIIb (human) [26]): 0.7 fold
fold-change vs wt (human FcγRIIIb (human) [26]): 0.7 fold
fold-change vs FY1 rIgG1m3 [1]: 7.8 fold
fold-change vs wt [1]: 7.8 fold
fold-change vs FY1 rIgG1m3 (human FcRn (human) [27]): 1.1 fold
fold-change vs FY1 rIgG1m3 (human FcγRIIb (human) [2]): 0.9 fold
fold-change vs wt (human FcγRIIb (human) [2]): 0.86 fold
fold-change vs FY1 rIgG1m3 [28]: 0.4 fold
fold-change vs wt [28]: 0.36 fold
fold-change vs FY1 rIgG1m3 (human C1q (human) [29]): 0.07 fold
fold-change vs FY1 rIgG1m3 [30]: 0.5 fold
fold-change vs wt [30]: 0.52 fold
fold-change vs FY1 rIgG1m3 [3]: 10.8 fold
fold-change vs wt [3]: 10.8 fold
fold-change in binding vs wild-type IgG1 [31]: 7.76
fold-change in binding vs wild-type IgG1 (human FcγRIIIb (human) [32]): 0.71
fold-change in binding vs wild-type IgG1 [33]: 0.52
fold-change in binding vs wild-type IgG1 (human FcγRIIb (human) [34]): 0.81
fold-change vs wt (human FcRn (human) [21]): 1.08 fold
fold-change vs wt (human C1q (human) [6]): 0.07 fold
fold-change in binding vs wild-type IgG1 (human FcRn (human) [35]): 1.07
fold-change in binding vs wild-type IgG1 [36]: 10.7
FcγR reporter signaling, fold-change vs wt [cont'd] [37]: 2.18 fold
FcγR reporter signaling, fold-change vs wt [cont'd] (human FcγRIIb (human) [38]): 0.66 fold
FcγR reporter signaling, fold-change vs wt [cont'd] [39]: 0.03 fold
FcγR reporter signaling, fold-change vs wt [cont'd] [40]: 0.02 fold
fold-change in binding vs wild-type IgG1 [41]: 0.36

IgG1 antibody with Fc variant R292P_Y300L
fold-change to WT Fc [1]: 1.4 fold
fold-change to WT Fc (human FcγRIIb (human) [2]): 0.9 fold
fold-change to WT Fc [3]: 0.682 fold
FcγR reporter signaling, fold-change vs wt [cont'd] [15]: 0.98 fold
FcγR reporter signaling, fold-change vs wt [cont'd] (human FcγRIIb (human) [16]): 0.72 fold
FcγR reporter signaling, fold-change vs wt [cont'd] [17]: 3.66 fold
FcγR reporter signaling, fold-change vs wt [cont'd] [18]: 7.42 fold
fold-change to WT Fc (human FcRn (human) [4]): 0.879 fold
fold-change vs wt (human FcγRIIIb (human) [19]): 1.72 fold
fold-change vs wt [20]: 1.4 fold
fold-change vs wt (human FcRn (human) [21]): 0.88 fold
fold-change vs wt (human FcγRIIb (human) [22]): 0.9 fold
fold-change to WT Fc [5]: 4.85 fold
fold-change vs wt [5]: 4.85 fold
fold-change to WT Fc (human C1q (human) [6]): 2.09 fold
fold-change vs wt (human C1q (human) [6]): 2.09 fold
fold-change to WT Fc [7]: 5.29 fold
fold-change vs wt [7]: 5.29 fold
fold-change vs wt [23]: 0.68 fold
fold-change vs wt (human C1q (human) [12]): 2.07 fold

G236A_S239D_A330L_I332E (antibody)
FcγR reporter signaling, fold-change vs wt [cont'd] [15]: 2.47 fold
FcγR reporter signaling, fold-change vs wt [cont'd] (human FcγRIIb (human) [16]): 1.2 fold
FcγR reporter signaling, fold-change vs wt [cont'd] [17]: 6.02 fold
FcγR reporter signaling, fold-change vs wt [cont'd] [18]: 19.4 fold
fold-change vs wt (human FcγRIIIb (human) [19]): 14 fold
fold-change vs wt [20]: 5.15 fold
fold-change vs wt (human FcRn (human) [21]): 1.02 fold
fold-change vs wt (human FcγRIIb (human) [22]): 1.94 fold
fold-change vs wt [5]: 8.03 fold
fold-change vs wt (human C1q (human) [6]): 0 fold
fold-change vs wt [7]: 55.1 fold
fold-change vs wt [23]: 9.68 fold
